# Source: the supplement of paper PMC9732359
# ± gives the uncertainty stated by the source.
# Assay: protein stability index of a GFP-peptide fusion (yeast GPS) (PSI 1-4); higher = more stable; sorted into four equal gates, so the index is relative within each strain
# Details: ubr1∆
# In short: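 Tiled 17-residue peptides from yeast proteins were fused downstream of GFP on a plasmid that also expresses Cherry, and the pooled library was carried in yeast. Mid-log cultures grown in leucine-free medium were sorted into four equal gates by GFP/Cherry fluorescence ratio. Plasmids from each gate were PCR-amplified and Illumina-sequenced, and reads were assigned to strains by barcodes. Each peptide's protein stability index is the sum, over gates, of the gate's read frequency multiplied by its gate number.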
row,Sequence,protein stability index
1,LRFGEGASGEERLMSRP [PUP2],3.23 ± 0.065
2,LRHMPLASIPDIFITPT [SSN2],1.61 ± 0.043
3,LRKQKDSSTTSSNSQQS [ITC1],3.19 ± 0.059
4,LRRSGQIANDPSKKRRR [SMD1],3.23 ± 0.1
5,LRSDFYILANHYLSRVL [YJL039C/NUP192],2.44 ± 0.044
6,LRSKLFQFKLLQSNSKL [SMC4],2.23 ± 0.037
7,LSALNSEISSLKGKINN [SMC1],3.06 ± 0.075
8,LSDIETAVNGIDTDLFG [YGL172W/NUP49],3.19 ± 0.055
9,LSDLSSPVQDWNLLRSL [YML103C/NUP188],2.65 ± 0.14
10,LSDYEVLKFLTDLEKKH [RPC17],3.11 ± 0.13
11,LSDYIPGPYPNEQAARA [CYT1],2.39 ± 0.05
12,LSEEETLLVIRRLHKVL [SNF2],2.21 ± 0.053
13,LSERKAEKAEIRKRRAS [RPS6A],3.36 ± 0.14
14,LSGIIQDIYYLAQTLKL [RRI2],1.04 ± 0.093
15,LSGLSADKPFTRLTAYQ [YML031W/NDC1],2.97 ± 0.063
16,LSIICVGGHNVTIREQI [SIR3],1.81 ± 0.056
17,LSILNEIKKVTQIVAKF [SIN4],2.87 ± 0.091
18,LSKLEKALDRHEFFIAN [SRP68],2.64 ± 0.047
19,LSLYSTDLENSSLFQEK [ECM29],2.77 ± 0.046
20,LSMNIAPRLRLEDIFQQ [RET1],2.01 ± 0.037
21,LSNLHESNKRYRFFKKI [SNF12],2.24 ± 0.065
22,LSQNESTRASTVPNLPT [ISW2],2.6 ± 0.048
23,LSRKPSDNKKRSGSNAA [RPC82],3.03 ± 0.044
24,LSSDEKRELLKRYRLKE [RPB5],3.52 ± 0.14
25,LSSELDSNKTLLHNHLK [SMC2],3.2 ± 0.039
26,LSTSVGWKYEDVVAKLE [RPL16A],3.53 ± 0.19

row,Sequence,protein stability index
1,LTALGKEKEKEREEAEK [MED2],1.32 ± 0.15
2,LTDHRKETWLHELSSSH [SRB8],2.76 ± 0.14
3,LTDLDSPSEFVDVAIPC [RPS0A],2.56 ± 0.063
4,LTEGGSILEEKIAVLNN [SMC1],2.87 ± 0.28
5,LTESQTETYISDLVNQG [RPN5],3.21 ± 0.071
6,LTFNSKNIQSKDSYINA [FAS2],2.68 ± 0.12
7,LTGNQLPTPTPTEMEPD [SWI1],2.85 ± 0.03
8,LTHPKYLNSRIIPTTLE [YML103C/NUP188],2.25 ± 0.036
9,LTNEISDLKGKLSSAEN [YIL149C/MLP2],3.32 ± 0.18
10,LTSFAEENNYQYGYSGS [SNF6],2.48 ± 0.066
11,LTSVTNDICSVENYETS [SIR4],1.84 ± 0.059
12,LTVDNLSIAIVGKDTPF [PRE5],3 ± 0.037
13,LVDKRIDMLPMLLGTDL [DIS3],2.34 ± 0.059
14,LVDQGFNYSGKDMLYSG [RET1],3.52 ± 0.044
15,LVLPPVVTSSVAESFTD [SNF2],2.32 ± 0.053
16,LVNGFSQSQQKLLKEKV [MED2],2.61 ± 0.052
17,LVNIRTQTSKEQEIENN [ITC1],3.06 ± 0.066
18,LVPPPRTIANQDHFHRL [RPR2],2.93 ± 0.066
19,LVQKTVQESGNIDYQKG [GRR1],3.23 ± 0.1
20,LVRSIIAFDDLIENKIQ [RPN8],2.43 ± 0.099
21,LVSEKIINSTALMKEKD [RPC82],3.27 ± 0.092
22,LVSVTSTLQHFQETLDS [MED8],2.39 ± 0.048
23,LVVYAEDNGIVKALRNV [RPL4A],2.57 ± 0.12
24,LVYDVKGRFAVHRITDE [RPS4A],3.29 ± 0.068
25,LWRNFCRKLSFSDKVNA [ITC1],1.37 ± 0.094
26,LYAVSTFENTNNTEKND [SIR4],2.38 ± 0.057

row,Sequence,protein stability index
1,LYQIWIVMVWLKENTYV [YDL116W/NUP84],2.14 ± 0.046
2,LYQLFKTCIQGINSPLS [YJL039C/NUP192],2.04 ± 0.11
3,LYRYRFDPFQAVSRSMT [ECM29],2.74 ± 0.043
4,LYVPRKCSATNRIIKAD [RPS21A],2.19 ± 0.15
5,LYYPQKPLGTTRAMEYL [RPB2],2.83 ± 0.06
6,MAISKNLPILKNHFRKH [RPL13A],2.54 ± 0.19
7,MAKCLDNPDQGISDMCR [YCS4],3.2 ± 0.15
8,MANIPERIINVGVIGPL [SNU114],3.07 ± 0.077
9,MAPFRQDSILIIYPRSQ [ARP9],2.58 ± 0.076
10,MAQNKTHIPQTNLKNHP [YLR018C/POM34],2.85 ± 0.04
11,MASLPHPKIVKKHTKKF [RPL32],2.83 ± 0.075
12,MASRVDETTVPSYYYYV [ROX3],1.94 ± 0.069
13,MAVGKNKRLSKGKKGQK [RPS1A],1.45 ± 0.12
14,MAYFDENLNRNWRGREH [BRN1],3.14 ± 0.095
15,MDALTLMKCCHEAYSII [RRP45],1.76 ± 0.12
16,MDIILGIRVQDSVILAS [PRE1],1.4 ± 0.11
17,MDLLKFSSLAISEINFL [CSI1],2.35 ± 0.047
18,MEDIEKIKPYVRSFSKA [LRP1],2.74 ± 0.038
19,MEEEQQRQERLRQQQQQ [RPN10],3.39 ± 0.085
20,MENNEPAMAMEDLKNFI [SRB8],3.08 ± 0.068
21,MFAYAKEHEPCIIFMDE [RPT4],2.4 ± 0.043
22,MFLYILKHLEEMGKLRE [RRI2],3.16 ± 0.051
23,MFRNNYDGDTVTFSPTG [PRE5],3.18 ± 0.073
24,MFTQIYLERIELSFYIL [YML103C/NUP188],1.75 ± 0.12
25,MGKGKPRGLNSARKLRV [RPS23A],2.79 ± 0.072
26,MGPLSNIAQMIPGMSNM [SRP54],2.69 ± 0.04

row,Sequence,protein stability index
1,MGRVIRNQRKGAGSIFT [RPL2A],2.75 ± 0.15
2,MGVPIYGIVAMAATATD [FAS2],1.47 ± 0.051
3,MIKESSTANPNIKLLNN [POP1],2.74 ± 0.066
4,MIQEVIVEEDLEPFEAS [FAS2],3.47 ± 0.099
5,MISIIKLVTNVVDPKTS [YML103C/NUP188],1.67 ± 0.035
6,MKAVRKVAEVKKLEGTI [RPT4],3.56 ± 0.071
7,MKFQESLKKVDEIKAQR [SMC4],3.57 ± 0.082
8,MKKKLELISYRNESLKN [SRB8],3.07 ± 0.035
9,MKLNISYPVNGSQKTFE [RPS6A],2.94 ± 0.13
10,MKLSMPPEVTSSNCHVR [POP1],2.48 ± 0.042
11,MKNENANPKKLALMTAH [CDC53],1.79 ± 0.032
12,MKRNCGQIITLFSSRRL [RMP1],2.29 ± 0.071
13,MLLANISVARKIYDAFP [DIS3],1.73 ± 0.041
14,MLLITSGDSGVYTLACR [RPC11],2.46 ± 0.088
15,MLLLNIFISSDHEFVLI [YMR129W/POM152],1.23 ± 0.057
16,MLLVDIIPSRMGEAQTG [REC8],2.17 ± 0.061
17,MLQKKLVEVEDEKIEAI [SRB7],3.39 ± 0.086
18,MLTIARLGFFYNDQLYV [RPN7],2.2 ± 0.19
19,MLVKAVANSTKAAFIRV [RPT3],1.27 ± 0.036
20,MMEEIINVVIKASRKSV [ECM29],1.53 ± 0.12
21,MMLGEHLMSWSKTGIIA [SIN4],1.53 ± 0.27
22,MMVNNQTMQLIKNVQDL [SRB6],3.03 ± 0.17
23,MNDVINTEEVNRLEKEQ [LIN1],3.61 ± 0.085
24,MNGIQVDINRLKKGEVS [PRE3],1.36 ± 0.061
25,MNGNGKPGIPRGNTKIH [SIR3],3.25 ± 0.18
